{"source": "patent US20200332015A1", "about": "(NAMAB THERAPEUTICS, published 2020)", "key": {"[1]": {"biological_target": "T1, human Fc-tagged OX40 (Acro-Biosystems, cat. OXO-H5255) (human, UniProt P43489 29-216, limits assumed)", "T1 construct": "also called human OX40", "T1 sequence (looked up)": "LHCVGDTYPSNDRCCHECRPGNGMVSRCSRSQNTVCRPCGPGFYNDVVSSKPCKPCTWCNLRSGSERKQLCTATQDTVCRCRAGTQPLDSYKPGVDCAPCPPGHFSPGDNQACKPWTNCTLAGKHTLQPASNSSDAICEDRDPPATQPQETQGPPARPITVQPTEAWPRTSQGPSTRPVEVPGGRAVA", "test": "SPR T200, Fc-tagged OX40 captured, scFv analyte", "protocol": "(§1) In addition to cross-reactivity to cynomolgus monkey CD137, selectivity of binding of the anti-human CD137 scFvs to human CD137 and not to other members of the TNFR superfamily, such as CD40 and OX40, is desired. Therefore, binding of selected scFvs to human CD40 and OX40 was tested. Binding of scFvs to human Fc-tagged CD40 (AcroBiosystems, cat. CDO-H5253) and human Fc-tagged OX40 (Acro-Biosystems, cat. OXO-H5255) was determined by SPR analysis on a T200 device (Biacore, GE Healthcare). In this experiment, Fc-tagged CD40 and OX40 were captured using the Human Antibody Capture kit from GE healthcare (cat. BR-1008-39). After each analyte injection cycle, the anti-human Fc-specific IgG was regenerated and new antigen was captured. The scFvs were injected as analyte using a high concentration of 180 nM of the analyte diluted in running buffer. Association and dissociation time were set to 300 s and 720 s, respectively. Obtained sensorgrams were fitted using the 1:1 binding model."}, "[2]": {"biological_target": "T2, mouse Fc-tagged mouse CD137 (R&D Systems, cat. 937-4B-050) (mouse, UniProt P20334 24-187)", "T2 construct": "also called mouse CD137-Fc chimeric protein", "T2 sequence (looked up)": "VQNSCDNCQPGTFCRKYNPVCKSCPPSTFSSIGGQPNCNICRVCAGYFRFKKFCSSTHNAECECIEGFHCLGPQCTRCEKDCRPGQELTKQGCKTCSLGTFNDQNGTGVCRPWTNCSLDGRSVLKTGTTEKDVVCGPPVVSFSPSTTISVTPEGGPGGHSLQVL", "test": "SPR T200, Fc-tagged antigen captured, scFv analyte"}, "[3]": {"biological_target": "T3, Fc tagged human CD137 (R&D Systems, cat. 838-4B-100) (human, UniProt Q07011 24-186)", "T3 construct": "also called CD137 Fc chimera; human CD137-Fc chimeric protein", "test": "SPR T200, Fc-tagged antigen captured, scFv analyte", "protocol": "(§2) Affinity of the humanized scFvs to human CD137 was determined by SPR analysis on a T200 device (Biacore, GE Healthcare). […] After each analyte injection cycle, the anti-human Fc-specific IgG was regenerated and new antigen was captured. The scFvs were injected as analyte using a dose response multi-cycle kinetic assay over the captured CD137 with concentrations of the analyte ranging from 0.19 to 45 nM (three-fold dilutions steps) diluted in running buffer. Association and dissociation time were set to 300 s and 720 s, respectively. Obtained sensorgrams were fitted using the 1:1 binding model."}, "[4]": {"biological_target": "T4, human CD137 expressed on Jurkat cells (human, UniProt Q07011 24-255)", "T4 construct": "Also used here for CD137 on T cells of human PBMC in the IL-2 assays; also called Jurkat CD137 cells (clone C6, 1); membranous CD137", "test": "flow cytometry on CD137 expressing Jurkat cells", "protocol": "(§3) Binding potency affinity to human CD137 expressing cells was also determined for selected scFvs. 50,000 CD137 expressing Jurkat cells (or as reference cell line Jurkat NFAT) were distributed to round bottom non-tissue culture treated 96 well plates. Cells were washed twice with 100 μl PBS by centrifugation at 400×g for 5 min. […] After 1 h incubation at 4° C. on a nutating mixer, cells were washed 3 times with 100 μl staining buffer and centrifugation steps of 5 min at 400×g. […] Plates were incubated 1 h at 4° C. on a nutating mixer, then washed 3 times with 100 μl of staining buffer and resuspended in a final volume of 50 μl of staining buffer. Finally, APC signal of 20,000 events per well was analyzed by flow cytometry using a Novocyte flow cytometer system (ACEA Bioscience)."}, "[5]": {"biological_target": "T5, human Fc-tagged CD40 (AcroBiosystems, cat. CDO-H5253) (human, UniProt P25942 21-193)", "T5 construct": "also called human CD40", "T5 sequence (P25942 21-193 limits assumed)": "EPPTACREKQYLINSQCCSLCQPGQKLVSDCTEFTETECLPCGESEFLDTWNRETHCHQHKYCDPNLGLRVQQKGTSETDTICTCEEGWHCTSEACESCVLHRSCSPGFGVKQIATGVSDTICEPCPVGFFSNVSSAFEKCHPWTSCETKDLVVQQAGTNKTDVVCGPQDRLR", "test": "SPR T200, Fc-tagged CD40 captured, scFv analyte", "protocol": "as §1"}, "[6]": {"biological_target": "T6, cynomolgus monkey Fc-tagged CD137 (R&D Systems, cat. 9324-4B-100) (cynomolgus monkey, UniProt A9YYE7 24-186)", "T6 construct": "also called cynomolgus CD137-Fc chimeric protein", "T6 sequence (A9YYE7 entry or part of it)": "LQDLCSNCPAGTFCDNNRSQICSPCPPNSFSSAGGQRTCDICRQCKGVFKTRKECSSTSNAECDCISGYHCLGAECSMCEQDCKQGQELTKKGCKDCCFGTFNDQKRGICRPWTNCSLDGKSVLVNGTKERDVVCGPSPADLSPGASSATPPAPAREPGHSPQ", "test": "SPR T200, Fc-tagged antigen captured, scFv analyte", "protocol": "as §2\nCross-reactivity to cynomolgus CD137 was measured with cynomolgus monkey Fc-tagged CD137 (R&D Systems, cat. 9324-4B-100) in a similar assay as used to measure binding to human CD137."}, "[7]": {"biological_target": "T4, human CD137 expressed on Jurkat cells", "test": "flow cytometry on CD137 expressing Jurkat cells, protein L-APC", "protocol": "as §3"}}, "data": [{"binder": "PRO1352 (38-02-A04 sc13, CDR graft with interdomain disulfide, VH3, scFv) (scFv, VL-linker-VH; carries VH G51C and VL T141C (AHo numbering); also called the scFv based on 38-02-A04 clone) scFv: DIQMTQSPSSLSASVGDRVTITCQASQSINNVLAWYQQKPGKAPKLLIYRASTLASGVPSRFSGSGSGTDFTLTISSLQPEDFATYYCQSSYGNYGDFGCGTKVTVLGGGGGSGGGGSGGGGSGGGGSEVQLVESGGGLVQPGGSLRLSCAASGFSFSNSYWICWVRQAPGKCLEWIGCTFVGSSDSTYYANWAKGRFTISRDNSKNTVYLQMNSLRAEDTAVYYCARHPSDAVYGYANNLWGQGTLVTVSS", "values": [{"measurement": "binding result", "setting": "[1]", "value": "no binding (tested: 180 nM)"}, {"measurement": "binding result", "setting": "[2]", "value": "no binding"}, {"measurement": "Kd", "setting": "[3]", "value": 1.47, "unit": "nM"}, {"measurement": "koff", "setting": "[3]", "value": 0.00103, "unit": "s⁻¹"}, {"measurement": "kon", "setting": "[3]", "value": 701000, "unit": "M⁻¹ s⁻¹"}, {"measurement": "Maximum binding (relative to urelumab)", "setting": "[4]", "value": 10, "unit": "%"}, {"measurement": "rel. EC50 (EC50, urelumab/EC50, scFv)", "setting": "[4]", "value": 0.057, "unit": "ratio"}, {"measurement": "binding result", "setting": "[5]", "value": "no binding (tested: 180 nM)"}, {"measurement": "Kd", "setting": "[6]", "value": 1.47, "unit": "nM"}, {"measurement": "koff", "setting": "[6]", "value": 0.00102, "unit": "s⁻¹"}, {"measurement": "kon", "setting": "[6]", "value": 695000, "unit": "M⁻¹ s⁻¹"}, {"measurement": "EC50", "setting": "[7]", "value": 1.1, "unit": "µg/mL"}]}]}
